Data: patent publication US11390660B2, “Uterine cancer treatments” (Immatics Biotechnologies GmbH, priority 2016, dated 2022)

Each substance was assayed against HLA-A*02:01 (Homo sapiens, UniProt P04439, D140Y/D185E/D98H/E176V/E277Q/G131W/G231S/I119V/I121R/I166T/I218V/L300P/L318F/N151K/N90K/P208A/P217A/Q86G/Q94H/R138H/R169H/T345S) (assay: MHC binding assay: UV-ligand exchange with β2m ELISA). Conditions: peptide exchange yield, binding to HLA-A*02:01.
From the text: Candidate peptides for T cell based therapies according to the present invention were further tested for their MHC binding capacity (affinity). The individual peptide-MHC complexes were produced by UV-ligand exchange, where a UV-sensitive peptide is cleaved upon UV-irradiation, and exchanged with the peptide of interest as analyzed. Only peptide candidates that can effectively bind and stabilize the peptide-receptive MHC molecules prevent dissociation of the MHC complexes. To determine the yield of the exchange reaction, an ELISA was performed based on the detection of the light chain (β2m) of stabilized MHC complexes. The assay was performed as generally described in Rodenko et al. (Rodenko et al., 2006).
96 well MAXISorp plates (NUNC) were coated over night with 2 ug/ml streptavidin in PBS at room temperature, washed 4× and blocked for 1 h at 37° C. in 2% BSA containing blocking buffer. Refolded HLA-A*02:01/MLA-001 monomers served as standards, covering the range of 15-500 ng/ml. Peptide-MHC monomers of the UV-exchange reaction were diluted 100 fold in blocking buffer. Samples were incubated for 1 h at 37° C., washed four times, incubated with 2 ug/ml HRP conjugated anti-β2m for 1 h at 37° C., washed again and detected with TMB solution that is stopped with […]. Absorption was measured at 450 nm. Candidate peptides that show a high exchange yield (preferably higher than 50%, most preferred higher than 75%) are generally preferred for a generation and production of antibodies or fragments thereof, and/or T cell receptors or fragments thereof, as they show sufficient avidity to the MHC molecules and prevent dissociation of the MHC complexes.

Substance | Peptide exchange
24 (ILDAQTAFV; listed as Homo sapiens) [compound 24] | +++ (>50 = +++)
52 (ALISEKLETL; listed as Homo sapiens) [compound 52] | +++ (>50 = +++)
17 (KLWEESTAQV; listed as Homo sapiens) [compound 17] | +++ (>50 = +++)
13 (ALQNKVVAL; listed as Homo sapiens) [compound 13] | +++ (>50 = +++)
38 (RILDIDIPLSV; listed as Homo sapiens) [compound 38] | +++ (>50 = +++)
46 (NMDDVIYYV; listed as Homo sapiens) [compound 46] | +++ (>50 = +++)
40 (GLLGGVIMMV; listed as Homo sapiens) [compound 40] | ++++ (> 75% = ++++)
47 (GLVEQLYDL; listed as Homo sapiens) [compound 47] | +++ (>50 = +++)
27 (VLNPETTVV; listed as Homo sapiens) [compound 27] | +++ (>50 = +++)
44 (FLNGLEILL; listed as Homo sapiens) [compound 44] | ++++ (> 75% = ++++)
33 (SMTTNLDLKV; listed as Homo sapiens) [compound 33] | ++ (>20% = ++)
22 (VLVSSVLGV; listed as Homo sapiens) [compound 22] | +++ (>50 = +++)
19 (YLETMNITL; listed as Homo sapiens) [compound 19] | +++ (>50 = +++)
48 (ILAETQPEL; listed as Homo sapiens) [compound 48] | +++ (>50 = +++)
36 (SLLSDIIAL; listed as Homo sapiens) [compound 36] | +++ (>50 = +++)
35 (TLLPTLYEI; listed as Homo sapiens) [compound 35] | +++ (>50 = +++)
12 (ALAPSEGVQAA; listed as Homo sapiens) [compound 12] | ++++ (> 75% = ++++)

Substance | Peptide exchange
42 (FLSGYYVTL; listed as Homo sapiens) [compound 42] | ++++ (> 75% = ++++)
37 (VLLATVTEL; listed as Homo sapiens) [compound 37] | +++ (>50 = +++)
16 (KLNSSIQYV; listed as Homo sapiens) [compound 16] | +++ (>50 = +++)
39 (ALDGKIYEL; listed as Homo sapiens) [compound 39] | +++ (>50 = +++)
4 (RLDIQGTGQLL; listed as Homo sapiens) [compound 4] | +++ (>50 = +++)
45 (VLLHVSVLL; listed as Homo sapiens) [compound 45] | ++ (>20% = ++)
21 (VLGPEGQLV; listed as Homo sapiens) [compound 21] | +++ (>50 = +++)
26 (SVLAGVVGV; listed as Homo sapiens) [compound 26] | ++++ (> 75% = ++++)
28 (GLDEAIRKV; listed as Homo sapiens) [compound 28] | +++ (>50 = +++)
49 (ALLELLHEL; listed as Homo sapiens) [compound 49] | ++++ (> 75% = ++++)
53 (VMHDSSFSV; listed as Homo sapiens) [compound 53] | ++++ (> 75% = ++++)
32 (GLIENTYQL; listed as Homo sapiens) [compound 32] | +++ (>50 = +++)
25 (ILLELFTHV; listed as Homo sapiens) [compound 25] | ++++ (> 75% = ++++)
15 (GLLSVELRV; listed as Homo sapiens) [compound 15] | ++++ (> 75% = ++++)
5 (SLFDEVRQI; listed as Homo sapiens) [compound 5] | ++++ (> 75% = ++++)
54 (TLSDVVVGL; listed as Homo sapiens) [compound 54] | +++ (>50 = +++)
